# In patent US11833164B2, “Methods of treating Fabry disease in patients having a mutation in the GLA gene” (Amicus Therapeutics, Inc., priority 2019, dated 2023):
# Tested on: mutant form of α-Gal A expressed in HEK-293 cells
# Test: HEK assay (GLP HEK / Migalastat Amenability Assay): α-Gal A activity in lysates of transiently transfected HEK-293 cells incubated with or without 10 μM migalastat
# Type: cell-based, human
# Settings: for Absolute increase (% WT) / Relative increase: 10 μM migalastat versus baseline; for Baseline α-Gal A activity (% WT): absence of migalastat; for Baseline α-Gal A activity (% WT) / 10 μM migalastat α-Gal A activity (% WT): percentage of baseline wild-type α-Gal A activity; for Baseline α-Gal A activity (% WT) / Baseline α-Gal A activity / 10 μM migalastat α-Gal A activity / 10 μM migalastat α-Gal A activity (% WT): mean ± SEM; for Baseline α-Gal A activity / 10 μM migalastat α-Gal A activity: lysates of HEK-293 cells transiently transfected with the mutant form; for Baseline α-Gal A activity: incubated 5 days in absence of migalastat; for 10 μM migalastat α-Gal A activity: incubated 5 days with 10 μM migalastat; for 10 μM migalastat α-Gal A activity (% WT): with 10 μM migalastat, 5 days
# Outline: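 Activity reported as 4-MU released (nmol/mg/hr), mean±SEM, from lysates of transiently transfected HEK-293 cells expressing mutant α-Gal A, cultured with or without 10 μM migalastat.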
Molecule,Absolute increase (% WT),Relative increase,Baseline α-Gal A activity (% WT),Baseline α-Gal A activity [nmol/mg/h],10 μM migalastat α-Gal A activity [nmol/mg/h],10 μM migalastat α-Gal A activity (% WT)
Y365S (protein) MQLRNPELHLGCALALRFLALVSWDIPGARALDNGLARTPTMGWLHWERFMCNLDCQEEPDSCISEKLFMEMAELMVSEGWKDAGYEYLCIDDCWMAPQRDSEGRLQADPQRFPHGIRQLANYVHSKGLKLGIYADVGNKTCAGFPGSFGYYDIDAQTFADWGVDLLKFDGCYCDSLENLADGYKHMSLALNRTGRSIVYSCEWPLYMWPFQKPNYTEIRQYCNHWRNFADIDDSWKSIKSILDWTSFNQERIVDVAGPGGWNDPDMLVIGNFGLSWNQQVTQMALWAIMAAPLFMSNDLRHISPQAKALLQDKDVIAINQDPLGKQGYQLRQGDNFEVWERPLSGLAWAVAMINRQEIGGPRSSTIAVASLGKGVACNPACFITQLLPVKRKLGFYEWTSRLRSHINPTGTVLLQLENTMQMSLKDLL,18.4,1.4,49.4 ± 4.1,14346 ± 1563,19484 ± 1899,67.8 ± 4.9
T366P (protein) MQLRNPELHLGCALALRFLALVSWDIPGARALDNGLARTPTMGWLHWERFMCNLDCQEEPDSCISEKLFMEMAELMVSEGWKDAGYEYLCIDDCWMAPQRDSEGRLQADPQRFPHGIRQLANYVHSKGLKLGIYADVGNKTCAGFPGSFGYYDIDAQTFADWGVDLLKFDGCYCDSLENLADGYKHMSLALNRTGRSIVYSCEWPLYMWPFQKPNYTEIRQYCNHWRNFADIDDSWKSIKSILDWTSFNQERIVDVAGPGGWNDPDMLVIGNFGLSWNQQVTQMALWAIMAAPLFMSNDLRHISPQAKALLQDKDVIAINQDPLGKQGYQLRQGDNFEVWERPLSGLAWAVAMINRQEIGGPRSYPIAVASLGKGVACNPACFITQLLPVKRKLGFYEWTSRLRSHINPTGTVLLQLENTMQMSLKDLL,13.4,1.3,46.2 ± 4,13407 ± 1462,16910 ± 1608,59.5 ± 5.1
T366N (protein) MQLRNPELHLGCALALRFLALVSWDIPGARALDNGLARTPTMGWLHWERFMCNLDCQEEPDSCISEKLFMEMAELMVSEGWKDAGYEYLCIDDCWMAPQRDSEGRLQADPQRFPHGIRQLANYVHSKGLKLGIYADVGNKTCAGFPGSFGYYDIDAQTFADWGVDLLKFDGCYCDSLENLADGYKHMSLALNRTGRSIVYSCEWPLYMWPFQKPNYTEIRQYCNHWRNFADIDDSWKSIKSILDWTSFNQERIVDVAGPGGWNDPDMLVIGNFGLSWNQQVTQMALWAIMAAPLFMSNDLRHISPQAKALLQDKDVIAINQDPLGKQGYQLRQGDNFEVWERPLSGLAWAVAMINRQEIGGPRSYNIAVASLGKGVACNPACFITQLLPVKRKLGFYEWTSRLRSHINPTGTVLLQLENTMQMSLKDLL,20.4,1.3,78.1 ± 5.3,24650 ± 1756,30947 ± 1867,98.5 ± 5.4
T366I (protein) MQLRNPELHLGCALALRFLALVSWDIPGARALDNGLARTPTMGWLHWERFMCNLDCQEEPDSCISEKLFMEMAELMVSEGWKDAGYEYLCIDDCWMAPQRDSEGRLQADPQRFPHGIRQLANYVHSKGLKLGIYADVGNKTCAGFPGSFGYYDIDAQTFADWGVDLLKFDGCYCDSLENLADGYKHMSLALNRTGRSIVYSCEWPLYMWPFQKPNYTEIRQYCNHWRNFADIDDSWKSIKSILDWTSFNQERIVDVAGPGGWNDPDMLVIGNFGLSWNQQVTQMALWAIMAAPLFMSNDLRHISPQAKALLQDKDVIAINQDPLGKQGYQLRQGDNFEVWERPLSGLAWAVAMINRQEIGGPRSYIIAVASLGKGVACNPACFITQLLPVKRKLGFYEWTSRLRSHINPTGTVLLQLENTMQMSLKDLL,20.0,1.3,57.8 ± 2.5,18539 ± 1165,24814 ± 1897,77.8 ± 5.3
I367F (protein) MQLRNPELHLGCALALRFLALVSWDIPGARALDNGLARTPTMGWLHWERFMCNLDCQEEPDSCISEKLFMEMAELMVSEGWKDAGYEYLCIDDCWMAPQRDSEGRLQADPQRFPHGIRQLANYVHSKGLKLGIYADVGNKTCAGFPGSFGYYDIDAQTFADWGVDLLKFDGCYCDSLENLADGYKHMSLALNRTGRSIVYSCEWPLYMWPFQKPNYTEIRQYCNHWRNFADIDDSWKSIKSILDWTSFNQERIVDVAGPGGWNDPDMLVIGNFGLSWNQQVTQMALWAIMAAPLFMSNDLRHISPQAKALLQDKDVIAINQDPLGKQGYQLRQGDNFEVWERPLSGLAWAVAMINRQEIGGPRSYTFAVASLGKGVACNPACFITQLLPVKRKLGFYEWTSRLRSHINPTGTVLLQLENTMQMSLKDLL,21.6,1.4,48.3 ± 3.7,15728 ± 1680,22178 ± 1794,69.9 ± 5.7
T366S (protein) MQLRNPELHLGCALALRFLALVSWDIPGARALDNGLARTPTMGWLHWERFMCNLDCQEEPDSCISEKLFMEMAELMVSEGWKDAGYEYLCIDDCWMAPQRDSEGRLQADPQRFPHGIRQLANYVHSKGLKLGIYADVGNKTCAGFPGSFGYYDIDAQTFADWGVDLLKFDGCYCDSLENLADGYKHMSLALNRTGRSIVYSCEWPLYMWPFQKPNYTEIRQYCNHWRNFADIDDSWKSIKSILDWTSFNQERIVDVAGPGGWNDPDMLVIGNFGLSWNQQVTQMALWAIMAAPLFMSNDLRHISPQAKALLQDKDVIAINQDPLGKQGYQLRQGDNFEVWERPLSGLAWAVAMINRQEIGGPRSYSIAVASLGKGVACNPACFITQLLPVKRKLGFYEWTSRLRSHINPTGTVLLQLENTMQMSLKDLL,16.2,1.2,70.6 ± 4.9,20731 ± 2170,24885 ± 1760,86.7 ± 3.6
